Like-named read-outs stand apart in the source and are kept apart here.
Key:
[1] = target: T1, human PD-L1 expressed on cells (human, UniProt Q9NZQ7 19-290); test: flow cytometry, IFN-γ-stimulated BxPC3 cells, MFI (FITC)
T1 construct: whole, on cells; One entry covers all human PD-L1-bearing cells; also called huPD-L1 on CHO cells (CHO-hPD-L1); PD-L1 on A431 cells

[2] = target: T2, PD-L1-His (Acro Cat PDL-H5229) (human, UniProt Q9NZQ7 19-238); test: SPR (Biacore 4000) as in Example 3, conjugate captured, PD-L1-His analyte, 25° C.
T2 construct: also called human PD-L1 (SPR analyte); not shown: His tag
Experimental: (§1) The binding affinities of the generated antibodies to human PD-L1 were determined by surface plasmon resonance. […] PD-L1-His (Acro Cat PDL-H5229) was tested for binding in a 3-fold titration series up to 100 nM. Data were collected in HBS-P (pH 7.4) at 37° C. and 25° C.
(§2) The binding affinities of the generated anti-PD-L1 conjugates were determined by surface plasmon resonance, as described in Example 3.

[3] = target: T1, human PD-L1 expressed on cells; test: flow cytometry, CHO-hPD-L1 cells, MFI (FITC)
[4] = target: T3, 6xHis-tagged huPD-L1 (human, UniProt Q9NZQ7 19-238); test: ELISA, plate-coated 6xHis huPD-L1, OD 450 nm
T3 construct: also called human PD-L1 (RD Systems 9049-B7); extracellular domain of human PD-L1 fused to a His tag; not shown: 6xHis tag
Experimental: (§3) Hybridoma supernatants were tested for binding to huPD-L1, cyPD-L1, and muPD-L1 by ELISA. Briefly, 30 μL 6xHis-tagged huPD-L1, cyPD-L1, or muPD-L1 (1 μg/mL in PBS) were immobilized in wells of a 96-well assay plate overnight at 4° C. After washing and blocking steps, 30 μL of antibody supernatant were added to the plate and incubated at room temperature for 1 hr. Bound human antibody was detected using horseradish peroxidase (HRP)-conjugated goat anti-human Fc (Invitrogen Cat. No. 109-035-097; diluted 1:5000) or goat anti-mouse Fc HRP (Invitrogen Cat. No. 115-035-071) as a control. Bound antibody was detected with 1-Step Ultra™ TMB-ELISA Substrate (ThermoFisher Scientific Cat. No. 34029). When the reaction was complete the reaction was stopped, and the plate was read at 450 nm.

[5] = target: T1, human PD-L1 expressed on cells; test: flow cytometry on unstimulated A431 cells, ratio of EC50 values
Experimental: (§4) Approximately 2.5×10⁵ A431 squamous cell carcinoma cells were plated in a final volume of 50 μL FACS buffer (phosphate buffered saline, 1% fetal bovine serum, 5 mM EDTA) in 96-well plates. 50 μL 2× Zombie Violet (BioLegend) were added to each well, and the plates were incubated 20-30 minutes at room temperature, protected from light. After incubation, 150 μL FACS buffer were added to each well. The plates were centrifuged at 500×g for 5 minutes. The supernatant was removed, and the cell pellet were resuspended in 200 μL FACS buffer. The wash procedure was repeated for a total of 2-3 washes. […] After the cells were incubated with the primary anti-PD-L1 antibody 1 hour on ice, protected from light, 150 μL FACS buffer were added to each well. The plates were then centrifuged, the supernatant was removed, and the cells were resuspended in 250 μL FACS buffer three times. After the third wash, the cells were resuspended in 100 μL goat anti-human IgG-Alexa Fluor 488 secondary antibody, and incubated for 30 minutes on ice, protected from light. After 3 washes as previously described, the cells were resuspended in 200 μL FACS buffer. The cells were then analyzed using a CytoFLEX flow cytometer.

[6] = target: T1, human PD-L1 expressed on cells; test: cell-based or functional assay
[7] = target: T2, PD-L1-His (Acro Cat PDL-H5229); test: SPR (Biacore 4000) as in Example 3, conjugate captured, PD-L1-His analyte, 37° C.
Experimental: as §1, §2

[8] = target: T1, human PD-L1 expressed on cells; test: flow cytometry, IFN-γ-stimulated A431 cells, MFI (FITC)
[9] = target: T1, human PD-L1 expressed on cells; test: flow cytometry on unstimulated A431 cells, 10 conjugate concentrations
Experimental: as §4

[10] = target: T1, human PD-L1 expressed on cells; test: cell-based or functional assay; remark: listed apart in the source
[11] = target: T4, 6xHis-tagged cyPD-L1 (cynomolgus monkey, UniProt Q9NZQ7 19-238 (human entry)); test: ELISA, plate-coated 6xHis cyPD-L1, OD 450 nm
T4 construct: The assay text says only '6xHis-tagged cyPD-L1'; also called cynomolgus PD-L1; not shown: 6xHis tag
Experimental: as §3

[12] = target: T1, human PD-L1 expressed on cells; test: flow cytometry, PD-L1-expressing CHO cells, MFI (FITC)
Experimental: Wild-type (wt) Chinese hamster ovary (CHO) cells (ATCC) and CHO cells engineered to express huPD-L1 (BPS Bioscience) were seeded at 200,000 cells in 50 μL FACS buffer (PBS containing 1% FBS and 5 mM EDTA) per well of a 96-well plate. Cell viability was assessed by adding 50 μL 2×Zombie Violet (BioLegend). Dead cell controls were also prepared and 2×Zombie violet was added. After incubating 20-30 minutes at room temperature, protected from light, 150 μL FACS buffer were added to each well. The plates were centrifuged, and the supernatant was aspirated. […] The plates were incubated 30 minutes on ice, protected from light. 150 μL FACS buffer were then added to each well and the plate was centrifuged. The supernatant was removed and the cells were washed three times in 200 μL FACS buffer. […] The cells were incubated 30 minutes on ice, protected from light. 150 μL FACS buffer were then added to each well and the plate was centrifuged. Supernatant was removed and the cells were washed twice with 200 μL FACS buffer. The cells were then resuspended in FACS buffer and analyzed by CytoFLEX using the appropriate channels. After gating for whole, single, live cells, the MFI in the APC channel (or FITC channel for human control samples) was normalized to the signal from hybridoma media alone (or isotype control for human control). MFI fold over media alone was determined for each clone supernatant tested.

[13] = target: T5, human PD-L2 (RD Systems 9075-PL) (human, UniProt Q9BQ51 20-219); test: ELISA, plate-coated human PD-L2 (1 µg/mL), OD 450 nm, B7 ligand specificity panel
T5 sequence (looked up): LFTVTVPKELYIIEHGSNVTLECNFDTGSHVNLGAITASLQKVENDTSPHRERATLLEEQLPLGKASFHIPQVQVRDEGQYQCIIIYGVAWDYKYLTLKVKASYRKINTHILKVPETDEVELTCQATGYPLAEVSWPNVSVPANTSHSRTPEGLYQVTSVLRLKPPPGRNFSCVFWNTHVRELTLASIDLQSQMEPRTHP
Experimental: as §3
(§5) Briefly, wells of a 96-well plate (Corning 3690) were incubated with 30 μL human PD-L1 (RD Systems 9049-B7), human PD-L2 (RD Systems 9075-PL), human B7-1/CD80 (RD Systems 9050-B1), human B7-2/CD86 (RD Systems 9090-B2), human B7-H2 (RD Systems 8206-B7), or human B7-H3 (RD Systems 1949-B3), at a concentration of 1 μg/mL in PBS, overnight at 4C, to coat the wells with ligand. After washing and blocking steps, 30 μL of antibody at 8 concentrations ranging from 1 ng/mL to 3 mg/mL were added to the plate and incubated at room temperature for 1 hr. Bound human antibody was detected as described above.

[14] = target: T2, PD-L1-His (Acro Cat PDL-H5229); test: SPR (Biacore 4000), antibody captured on anti-human CM4 chip, PD-L1-His analyte, 25° C.
Experimental: as §1

[15] = target: T4, 6xHis-tagged cyPD-L1; test: ELISA, plate-coated 6xHis cyPD-L1, OD 450 nm; remark: listed apart in the source
Experimental: as §3
(§6) Anti-PD-L1 antibodies, described in Example 1A and manufactured substantially as described in Example 1B, were tested for to huPD-L1 and cyPD-L1 by ELISA substantially as described in Example 1A, using 12 dilutions of antibody ranging from 1 ng/ml to 3 mg/mL.

[16] = target: T1, human PD-L1 expressed on cells; test: cell-based or functional assay; remark: listed apart in the source
[17] = target: T3, 6xHis-tagged huPD-L1; test: ELISA, plate-coated human PD-L1 (1 µg/mL), OD 450 nm, B7 ligand specificity panel
Experimental: as §3, §5

[18] = target: T1, human PD-L1 expressed on cells; test: flow cytometry on unstimulated A431 cells (MFI against antibody concentration)
Experimental: as §4

[19] = target: T2, PD-L1-His (Acro Cat PDL-H5229); test: SPR (Biacore 4000), antibody captured on anti-human CM4 chip, PD-L1-His analyte, 37° C.
Experimental: as §1

[20] = target: T3, 6xHis-tagged huPD-L1; test: ELISA, plate-coated 6xHis huPD-L1, OD 450 nm; remark: listed apart in the source
Experimental: as §3, §6

T1 sequence (Q9NZQ7 19-290): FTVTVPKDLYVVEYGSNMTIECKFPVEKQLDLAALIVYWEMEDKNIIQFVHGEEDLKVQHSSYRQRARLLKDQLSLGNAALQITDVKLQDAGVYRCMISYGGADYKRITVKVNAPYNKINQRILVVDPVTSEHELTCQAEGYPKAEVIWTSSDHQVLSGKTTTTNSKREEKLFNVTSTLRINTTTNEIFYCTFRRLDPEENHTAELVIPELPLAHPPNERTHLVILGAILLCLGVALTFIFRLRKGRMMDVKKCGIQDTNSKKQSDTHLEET
T3 sequence (Q9NZQ7 19-238): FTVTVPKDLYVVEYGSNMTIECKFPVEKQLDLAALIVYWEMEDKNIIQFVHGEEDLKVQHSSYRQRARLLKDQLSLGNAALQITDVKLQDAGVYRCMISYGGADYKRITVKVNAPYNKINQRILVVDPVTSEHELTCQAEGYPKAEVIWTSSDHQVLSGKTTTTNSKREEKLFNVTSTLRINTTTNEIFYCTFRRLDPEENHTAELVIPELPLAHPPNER
T2 sequence (Q9NZQ7 19-238 limits assumed): as the sequence (Q9NZQ7 19-238) above
T4 sequence (Q9NZQ7 other isoform, or with tags, fused parts or gaps): as the sequence (Q9NZQ7 19-238) above, with A33T, A34S, S62N, R68Q, Q82R, F173L, T185A, T192I, H215L counted along it

B1: 1P9-IR700 (antibody, V domains shown)
VH: EVQLVESGGGLVQPGGSLRLSCAASGFTFSTYWMSWVRQAPGKGLEWVANIKQDGGERYYVDSVKGRFTISRDNAKSSLYLQMNSLRAEDTALYYCARLRLYSDYEDYWGQGTLVTVSS
VL: DIQMTQSPSSVSASVGDRVTITCRASQGISSWLAWYQQKPGKAPKLLIYSVSSLQSGVPSRFSGSGSGTDFTLTISSLQPEDSATYYCQQANSLPPTFGGGTKVEIK
modifications: IRDye 700DX (IR700) attached via NHS ester; sites not stated; IRDye 700DX (IR700) attached via NHS ester; sites not stated; DAR 2.5 per antibody
notes: also called 1P9-IR700 conjugate; anti-PD-L1-IR700 conjugate
With B1 the EC50 [1] was 0.0439 µg/mL, the Kd [2] was 0.26 nM and the koff [2] was 5.4e-05 s⁻¹. The kon [2] was 210000 M⁻¹ s⁻¹, the EC50 [3] was 0.0151 µg/mL and the EC50 [4] was 0.0636 µg/mL. The “fold potency against avelumab-IR700” value [5] was about 23 fold, the “EC50 of photoimmunotherapy-induced killing of A431 cells (Cell Tox Green, 128 J/cm^2)” value [6] was 0.0124 µg/mL and the Kd [7] was 0.97 nM. For the same binder, the koff [7] was 0.00038 s⁻¹, the kon [7] was 390000 M⁻¹ s⁻¹ and the EC50 [8] was 0.046 µg/mL. For the same binder, the EC50 [9] was 0.0129 µg/mL, the “EC50 of luminescence (RLU), PD-1:PD-L1 Blockade Bioassay (PD-L1 aAPC/CHO-K1 cells with PD-1 Effector Jurkat NFAT-luciferase cells)” value [10] was 0.161 µg/mL and the EC50 [11] was 0.0542 µg/mL. For the same binder, the EC50 [12] was 0.0156 µg/mL.

B2: 1P4 (antibody, V domains shown)
VH: QVQLVESGGGVVQPGRSLRLSCAASGFTFSNYGMHWVRQAPGKGLEWVSLILYDGSNKYYADSVKGRFTISRDNSKNTLYLQMNSLRAEDTAVYYCARDRVWLDVWGKGTTVTVSS
VL: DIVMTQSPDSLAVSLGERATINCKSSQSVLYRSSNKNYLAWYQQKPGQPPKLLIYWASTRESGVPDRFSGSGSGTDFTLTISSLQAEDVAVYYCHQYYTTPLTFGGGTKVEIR
notes: Recombinant full-length human antibody expressed in CHO K1 GS KO cells, with wild-type human Fc; also called anti-PD-L1 antibody 1P4; Unconj; 1P4
For B2, the EC50 [13] was 5.76 µg/mL, the Kd [14] was 18 nM and the koff [14] was 0.0045 s⁻¹. For the same binder, the kon [14] was 250000 M⁻¹ s⁻¹, the EC50 [15] was 0.0306 µg/mL and the “EC50 of luminescence (RLU), PD-1:PD-L1 Blockade Bioassay (PD-L1 aAPC/CHO-K1 cells with PD-1 Effector Jurkat NFAT-luciferase cells)” value [16] was 0.25 µg/mL. For the same binder, the EC50 [17] was 0.478 µg/mL, the EC50 [18] was 0.0415 µg/mL and the Kd [19] was 27 nM. The koff [19] was 0.0097 s⁻¹, the kon [19] was 360000 M⁻¹ s⁻¹ and the EC50 [12] was 0.0457 µg/mL. It also gave an EC50 [20] of 0.0399 µg/mL.

Source: patent US20250145716A1 (RAKUTEN MEDICAL, published 2025)
